This series has as its target T1, p-hydroxyphenylpyruvate dioxygenase (HPPD) (Arabidopsis thaliana) (UniProt P93836).
T1 sequence: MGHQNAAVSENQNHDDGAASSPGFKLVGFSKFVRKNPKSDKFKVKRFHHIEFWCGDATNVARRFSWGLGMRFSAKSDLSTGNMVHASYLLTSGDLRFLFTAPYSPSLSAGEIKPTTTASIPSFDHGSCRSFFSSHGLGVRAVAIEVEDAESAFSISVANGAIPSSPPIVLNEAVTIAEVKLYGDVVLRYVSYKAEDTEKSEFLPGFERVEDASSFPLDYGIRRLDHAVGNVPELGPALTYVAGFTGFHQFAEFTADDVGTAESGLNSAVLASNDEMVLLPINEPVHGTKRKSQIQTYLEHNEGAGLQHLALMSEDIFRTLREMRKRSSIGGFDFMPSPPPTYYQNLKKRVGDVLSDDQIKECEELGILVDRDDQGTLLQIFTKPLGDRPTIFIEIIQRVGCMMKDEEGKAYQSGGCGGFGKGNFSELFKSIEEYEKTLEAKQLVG
Kind of series: filter. The note with it: 500 nM HPPD, 10% DMSO.

Regarding “GGGAGAGGAGGGAGAUAGAUAUCAANNNNNNNNNNNNNNNNNNNNNNNNNNNNNNNNNNNNNNNNNNNNNNNAGUUUGUCCUCACGGUGGAUGG [S115B enriched library (cycle 9)]”, the binding signal (% RNA retained) amounted to 10.

The record behind these values is patent publication US20100248978.
